These results are taken from patent publication US20220056119A1 (Regeneron, published 2022).

Experiment [1] concerns the target T1, Activin A (human, UniProt P08476 311-426).
T1 construct: Homodimer of two betaA subunits; bought (R&D Systems #338-AC); also called inhibin-betaA dimer
T1 sequence: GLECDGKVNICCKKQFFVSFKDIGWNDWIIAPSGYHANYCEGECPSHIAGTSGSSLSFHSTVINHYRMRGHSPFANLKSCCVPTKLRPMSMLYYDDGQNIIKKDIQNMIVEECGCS
Description: SPR, 5 nM Activin A + 15 nM binder over hActRIIA-hFc surface. On the procedure:
(§1) The binding signal (RU) was measured at 150 seconds after the start of the injection, and this signal was subtracted by the measured RU value for a negative control reference surface to determine the specific binding signal.
On the technique in general: In SPR one partner is held on a chip, and binding of the other changes the refractive index at the surface.

The target of experiment [2] is T1, Activin A. Description: cell-based or functional assay.
Experiment [3] addresses T1, Activin A. In words: SPR, 5 nM Activin A + 60 nM binder over hActRIIA-hFc surface. How it is done:
as §1

Experiment [4] addresses T1, Activin A. In words: SPR, 5 nM Activin A + 0.00 nM binder (no inhibitor) over hActRIIA-hFc surface. How it is done:
as §1

Experiment [5] has as its target T1, Activin A. Description: SPR, 5 nM Activin A + 0.94 nM binder over Follistatin-288 surface. How it is done: as §1
Experiment [6] concerns the target T1, Activin A. In words: SPR, 5 nM Activin A + 3.75 nM binder over Follistatin-288 surface. How it is done:
as §1

The target of experiment [7] is T1, Activin A. In words: SPR, 5 nM Activin A + 30 nM binder over hActRIIA-hFc surface. How it is done: as §1
Experiment [8] has as its target T1, Activin A. Description: SPR, 5 nM Activin A + 15 nM binder over Follistatin-288 surface. On the procedure:
as §1

The target in experiment [9] is T1, Activin A. In words: SPR, 5 nM Activin A + 60 nM binder over Follistatin-288 surface. On the procedure: as §1
Experiment [10] deals with T1, Activin A. Description: SPR, 5 nM Activin A + 1.88 nM binder over Follistatin-288 surface. How it is done: as §1
The target in experiment [11] is T1, Activin A. Description: SPR, 5 nM Activin A + 1.88 nM binder over hActRIIA-hFc surface. How it is done:
as §1

In experiment [12] the target is T1, Activin A. Description: SPR, 5 nM Activin A + 0.94 nM binder over hActRIIA-hFc surface. How it is done:
as §1

Experiment [13] concerns the target T1, Activin A. Description: SPR, 5 nM Activin A + 7.5 nM binder over Follistatin-288 surface. On the procedure: as §1
Experiment [14] concerns the target T1, Activin A. In words: SPR, 5 nM Activin A + 30 nM binder over Follistatin-288 surface. On the procedure:
as §1

Experiment [15] deals with T1, Activin A. In words: SPR, 5 nM Activin A + 7.50 nM binder over hActRIIA-hFc surface. How it is done:
as §1

In experiment [16] the target is T1, Activin A. Description: SPR, 5 nM Activin A + 3.75 nM binder over hActRIIA-hFc surface. On the procedure:
as §1

The target of experiment [17] is T1, Activin A. Description: SPR, 5 nM Activin A + 0 nM binder (no inhibitor) over Follistatin-288 surface. How it is done: as §1
The next experiment addresses T2, Activin AB (human, UniProt P08476 311-426; P09529 293-407).
T2 chain 1: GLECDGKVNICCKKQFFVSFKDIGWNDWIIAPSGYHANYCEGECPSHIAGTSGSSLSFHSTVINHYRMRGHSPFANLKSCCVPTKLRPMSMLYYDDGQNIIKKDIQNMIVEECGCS
T2 chain 2: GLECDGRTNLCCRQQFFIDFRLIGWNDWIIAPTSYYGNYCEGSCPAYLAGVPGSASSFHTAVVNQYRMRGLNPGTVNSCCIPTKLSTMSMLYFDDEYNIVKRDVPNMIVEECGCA
Description: cell-based or functional assay.

In a further experiment the target is T3, Activin AC (human, UniProt P55103 237-352).
T3 sequence 1: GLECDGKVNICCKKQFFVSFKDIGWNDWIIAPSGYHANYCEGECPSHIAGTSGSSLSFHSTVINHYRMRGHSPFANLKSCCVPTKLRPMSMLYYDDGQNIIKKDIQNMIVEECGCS
T3 sequence 2: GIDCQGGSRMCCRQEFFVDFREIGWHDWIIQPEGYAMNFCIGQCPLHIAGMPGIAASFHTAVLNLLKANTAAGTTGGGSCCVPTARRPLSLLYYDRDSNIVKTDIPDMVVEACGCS
Description: cell-based or functional assay.

B1: H4H10423P (antibody, human IgG4, V domains shown)
VH: QVQLQQSGPGLLKPSQTLSLTCAISGDSVSSNSAAWSWIRQSPSRGLEWLGRTYYRANWFNDYALSVKSRITINPVTSTNHFSLQLHSVTPEDTAVYYCAREGALGYYFDSWGQGTLVTVSS
VL: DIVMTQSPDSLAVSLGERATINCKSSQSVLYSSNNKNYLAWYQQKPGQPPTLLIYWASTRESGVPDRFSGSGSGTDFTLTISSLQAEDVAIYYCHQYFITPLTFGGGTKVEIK
As for B1, the “% bound RU w/ no inhibitor” value worked out at 112% with Activin A [1]; 116% with Activin A [3]; 100% with Activin A [4]; 120% with Activin A [5]; 103% in the experiment with Activin A [6]; 114% in the experiment with Activin A [7]. Moreover, the “% bound RU w/ no inhibitor” value with Activin A [8] is 96%; with Activin A [9], 93%; with Activin A [10], 122%; with Activin A [11] it was 114%; in the experiment with Activin A [12], 112%; with Activin A [13], 97%. The “% bound RU w/ no inhibitor” value with Activin A [14] was 94%; in the experiment with Activin A [15], 110%; in the experiment with Activin A [16] it was 111%; with Activin A [17], 100%. Besides, in the experiment with Activin A [2], the “IC50, inhibition of 100 pM Activin A in A204/CAGAx12-Luc luciferase bioassay” value amounted to 2e-10 M.

B2: H4H10430P (antibody, human IgG4, V domains shown)
VH: EVQLVESGGGLVQPGRSLRLSCKASGFAFDDFAMHWVRQAPGKGLEWVSGIVWNSGDIGYADSVKGRFTISRDNAKNSLYLQLNSLRTEDTALYFCVKDMVRGLMGFNYYGMDVWGQGTTVTVSS
VL: EIVLTQSPATLSLSPGERATLSCRASQTISTYLVWYRQRPGQAPSLLIYDASNRATDIPARFSGSGSGTDFTLTISSLEPEDFAVYYCQQRSNWPITFGQGTRLEIK
notes: also called mAb1
Regarding B2, the “% bound RU w/ no inhibitor” value with Activin A [1] was 2%; with Activin A [3], 2%; with Activin A [4], 100%; with Activin A [5], 79%; with Activin A [6] it was 15%; with Activin A [7], 2%. For the same molecule, the “% bound RU w/ no inhibitor” value was 1% with Activin A [8]; 1% with Activin A [9]; 59% with Activin A [10]; 62% with Activin A [11]; 81% with Activin A [12]; 1% in the experiment with Activin A [13]. Also, the “% bound RU w/ no inhibitor” value in the experiment with Activin A [14] was 1%; in the experiment with Activin A [15] it was 3%; with Activin A [16], 19%; in the experiment with Activin A [17], 100%. Besides, the “IC50, inhibition of 30 pM Activin AB in A204/CAGAx12-Luc luciferase bioassay” value in the experiment with Activin AB was 1e-10 M. Moreover, the “IC50, inhibition of 4 nM Activin AC in A204/CAGAx12-Luc luciferase bioassay” value in the experiment with Activin AC worked out at 0.93 nM. Also, in the experiment with Activin A [2], the “IC50, inhibition of 100 pM Activin A in A204/CAGAx12-Luc luciferase bioassay” value came out at 6.1e-11 M.

B3: H4H10432P2 (antibody, human IgG4, V domains shown)
VH: EVQLVESGGGLVQPGRSLTLSCAVSGFTFDDHAMHWVRQAPGKGLEWVSGISWNSVSIGYADSVKGRFTISRDNAKTSLYLQMNSLRVDDTALYYCVQDLNDILTGYPLFDFWGQGTLVTVSS
VL: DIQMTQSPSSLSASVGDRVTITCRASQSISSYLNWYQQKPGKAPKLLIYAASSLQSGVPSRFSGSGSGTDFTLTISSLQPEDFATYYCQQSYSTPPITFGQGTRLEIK
On to B3, for which, in the experiment with Activin AB, the “IC50, inhibition of 30 pM Activin AB in A204/CAGAx12-Luc luciferase bioassay” value turned out to be 8e-10 M. The “IC50, inhibition of 4 nM Activin AC in A204/CAGAx12-Luc luciferase bioassay” value with Activin AC worked out at 2.8 nM. The “IC50, inhibition of 100 pM Activin A in A204/CAGAx12-Luc luciferase bioassay” value in the experiment with Activin A [2] is 1.1e-10 M.

B4: H4H10468P2 (antibody, human IgG4, V domains shown)
VH: QVQLQESGPGLVKPSETLSLTCTVSGGSFSSHFWSWIRQPPGKGLEWIGYIYYSGGTHYNPSLESRVTISVDTSKNQFSLKLNSVTAADTAVYYCARARSGITFGGLIVPGSFDIWGQGTMVTVSS
VL: not shown
Consider B4, for which, in the experiment with Activin AB, the “IC50, inhibition of 30 pM Activin AB in A204/CAGAx12-Luc luciferase bioassay” value came to 2.3e-09 M. In addition, the “IC50, inhibition of 4 nM Activin AC in A204/CAGAx12-Luc luciferase bioassay” value in the experiment with Activin AC was 3.4 nM. Moreover, in the experiment with Activin A [2], the “IC50, inhibition of 100 pM Activin A in A204/CAGAx12-Luc luciferase bioassay” value was 3.9e-11 M.

B5: H4H10442P2 (antibody, human IgG4, V domains shown)
VH: QVQLQESGPGLVKPSETLSITCTVSGGSFSSHFWTWIRQPPGKGLEWIGYLHYSGGTSYNPSLKSRVIISVDTSKNQFSLKLNSVTAADTAVYYCARARSGITFGGLIVPGSFDIWGQGTMVTVSS
VL: not shown
Consider B5, for which the “% bound RU w/ no inhibitor” value with Activin A [1] stood at 113%; with Activin A [3], 118%; with Activin A [4], 100%; with Activin A [5] it was 73%; with Activin A [6] it was 6%; in the experiment with Activin A [7] it was 117%. Besides, the “% bound RU w/ no inhibitor” value came out at 3% with Activin A [8]; 3% in the experiment with Activin A [9]; 46% in the experiment with Activin A [10]; 114% with Activin A [11]; 114% with Activin A [12]; 3% with Activin A [13]. Besides, the “% bound RU w/ no inhibitor” value with Activin A [14] came to 3%; in the experiment with Activin A [15] it was 105%; with Activin A [16], 95%; with Activin A [17], 100%. For the same molecule, the “IC50, inhibition of 30 pM Activin AB in A204/CAGAx12-Luc luciferase bioassay” value in the experiment with Activin AB is 2.2e-09 M. For the same molecule, in the experiment with Activin AC, the “IC50, inhibition of 4 nM Activin AC in A204/CAGAx12-Luc luciferase bioassay” value was found to be 6.5 nM. For the same molecule, in the experiment with Activin A [2], the “IC50, inhibition of 100 pM Activin A in A204/CAGAx12-Luc luciferase bioassay” value came out at 5.6e-11 M.

B6: H4H10446P2 (antibody, human IgG4, V domains shown)
VH: QVQLQESGPGLVKPSETLSLTCTVSGGSFSSHFWSWIRQPPGKGLEWIGYILYTGGTSFNPSLKSRVSMSVGTSKNQFSLKLSSVTAADTAVYYCARARSGITFTGIIVPGSFDIWGQGTMVTVSS
VL: not shown
notes: also called mAb2
In the case of B6, the “% bound RU w/ no inhibitor” value is 108% in the experiment with Activin A [1]; 118% with Activin A [3]; 100% with Activin A [4]; 77% in the experiment with Activin A [5]; 7% with Activin A [6]; 98% with Activin A [7]. Also, the “% bound RU w/ no inhibitor” value amounted to 3% in the experiment with Activin A [8]; 3% with Activin A [9]; 54% with Activin A [10]; 115% with Activin A [11]; 111% in the experiment with Activin A [12]; 3% in the experiment with Activin A [13]. Further, the “% bound RU w/ no inhibitor” value with Activin A [14] was found to be 3%; in the experiment with Activin A [15], 94%; with Activin A [16], 85%; with Activin A [17], 100%. For the same molecule, the “IC50, inhibition of 30 pM Activin AB in A204/CAGAx12-Luc luciferase bioassay” value with Activin AB came to 8.2e-09 M. In the experiment with Activin AC, the “IC50, inhibition of 4 nM Activin AC in A204/CAGAx12-Luc luciferase bioassay” value came to 5.6 nM. For the same molecule, in the experiment with Activin A [2], the “IC50, inhibition of 100 pM Activin A in A204/CAGAx12-Luc luciferase bioassay” value worked out at 4.7e-11 M.
